Measured values from publication PMC6411835 (Nucleic Acids Research, 2018).

B1: Zip2^499–704 (domain or fragment)
chain: ENKCIAVNENKVIENQKVIQSLCKNSHLDLIEQSYFGECDFIINHSTCVYKIQASRFMQLRNNGSLHYDKAVNDLLTEFQRVIIIVEFSEIIQDVDPDLFWKIKLYLLNSRVDVFFIHETTDFFIDWMKYFIARWAFSYNDEKEKNIANADILLDLGFNILLVRKIFQTYSLEEFFMAIIKEESKAVKMLTVSQMTRLKKLLTLEW
B2: His6-Spo16 (natural protein)
chain: SEFFWDVQKIQEISNVEEHSVVKCVTVNTSRLISQLNEELQDEESGVNFIVTQLQLLINNVYEKIQKSPGVPAHRSLMINLNFTRLKFSIAYWDILLERSLDLINGPSKTGARYFITEVTPVDRSRYVENNQYFLAFKANQRLTRNSVDMDEFIDFEILIKQIIFDLFKKNGIPDQDFEAILSRFHNLESLVVAFNE

Key:
[1] = target: B2; assay: SEC-MALS
[2] = target: B1; assay: co-purification after co-expression
[3] = target: T1, surface-lysine methylated Zip2^499–704 (S. cerevisiae, UniProt P53061 499-704); assay: crystal structure
T1 sequence: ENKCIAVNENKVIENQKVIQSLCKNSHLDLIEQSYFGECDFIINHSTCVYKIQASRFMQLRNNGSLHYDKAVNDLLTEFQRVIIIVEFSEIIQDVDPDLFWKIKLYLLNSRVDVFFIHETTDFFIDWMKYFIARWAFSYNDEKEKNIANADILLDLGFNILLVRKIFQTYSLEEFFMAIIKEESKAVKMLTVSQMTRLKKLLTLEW

For B1, the “stoichiometry N” value [1] was 1.

B2: binds [2].

B3: surface-lysine methylated His6-Spo16 (natural protein)
chain: SEFFWDVQKIQEISNVEEHSVVKCVTVNTSRLISQLNEELQDEESGVNFIVTQLQLLINNVYEKIQKSPGVPAHRSLMINLNFTRLKFSIAYWDILLERSLDLINGPSKTGARYFITEVTPVDRSRYVENNQYFLAFKANQRLTRNSVDMDEFIDFEILIKQIIFDLFKKNGIPDQDFEAILSRFHNLESLVVAFNE
modifications: surface lysine residues dimethylated (dimethyllysine)
B3: binds [3].
